Laboratory results taken from US20070036810A1, “Cyclic amp response element activator proteins and uses related thereto” (priority 2003, published 2007).

B1: CREAP3: human CREAP family protein of 619 amino acids, SEQ ID NO 25; reconstructed full-length FLJ00364 cDNA (protein)
chain: MAASPGSGSANPRKFSEKIALHTQRQAEETRAFEQLMTDLTLSRVQFQKLQQLRLTQYHGGSLPNVSQLRSNASEFQPSFHQADNVRGTRHHGLVERPSRNRFHPLHRRSGDKPGRQFDGSAFGANYSSQPLDESWPRQQPPWKDEKHPGFRLTSALNRTNSDSALHTSALSTKPQDPYGGGGQSAWPAPYMGFCDGENNGHGEVASFPGPLKEENLLNVPKPLPKQLWETKEIQSLSGRPRSCDVGGGNAFPHNGQNLGLSPFLGTLNTGGSLPDLTNLHYSTPLPASLDTTDHHFGSMSVGNSVNNIPAAMTHLGIRSSSGLQSSRSNPSIQATLNKTVLSSSLNNHPQTSVPNASALHPSLRLFSLSNPSLSTTNLSGPSRRRQPPVSPLTLSPGPEAHQGFSRQLSSTSPLAPYPTSQMVSSDRSQLSFLPTEAQAQVSPPPPYPAPQELTQPLLQQPRAPEAPAQQPQAASSLPQSDFQLLPAQGSSLTNFFPDVGFDQQSMRPGPAFPQQVPLVQQGSRELQDSFHLRPSPYSNCGSLPNTILPEDSSTSLFKDLNSALAGLPEVSLNVDTPFPLEEELQIEPLSLDGLNMLSDSSMGLLDPSVEETFRADRL
modifications: human
notes: reconstructed full-length FLJ00364 cDNA
B2: TRAF6: full length TRAF6 cDNA expression construct; TNF receptor-associated factor 6 (protein, UniProt Q9Y4K3 1-522, looked up)
chain: MSLLNCENSCGSSQSESDCCVAMASSCSAVTKDDSVGGTASTGNLSSSFMEEIQGYDVEFDPPLESKYECPICLMALREAVQTPCGHRFCKACIIKSIRDAGHKCPVDNEILLENQLFPDNFAKREILSLMVKCPNEGCLHKMELRHLEDHQAHCEFALMDCPQCQRPFQKFHINIHILKDCPRRQVSCDNCAASMAFEDKEIHDQNCPLANVICEYCNTILIREQMPNHYDLDCPTAPIPCTFSTFGCHEKMQRNHLARHLQENTQSHMRMLAQAVHSLSVIPDSGYISEVRNFQETIHQLEGRLVRQDHQIRELTAKMETQSMYVSELKRTIRTLEDKVAEIEAQQCNGIYIWKIGNFGMHLKCQEEEKPVVIHSPGFYTGKPGYKLCMRLHLQLPTAQRCANYISLFVHTMQGEYDSHLPWPFQGTIRLTILDQSEAPVRQNHEEIMDAKPELLAFQRPTIPRNPKGFGYVTFMHLEALRQRTFIKDDTLLVRCEVSTRFDMGSLRREGFQPRSTDAGV
modifications: full-length
B3: CREAP2: human CREAP family protein of 693 amino acids, SEQ ID NO 16 (protein)
chain: MATSGANGPGSATASASNPRKFSEKIALQKQRQAEETAAFEEVMMDIGSTRLQAQKLRLAYTRSSHYGGSLPNVNQIGSGLAEFQSPLHSPLDSSRSTRHHGLVERVQRDPRRMVSPLRRYTRHIDSSPYSPAYLSPPPESSWRRTMAWGNFPAEKGQLFRLPSALNRTSSDSALHTSVMNPSPQDTYPGPTPPSILPSRRGGILDGEMDPKVPAIEENLLDDKHLLKPWDAKKLSSSSSRPRSCEVPGINIFPSPDQPANVPVLPPAMNTGGSLPDLTNLHFPPPLPTPLDPEETAYPSLSGGNSTSNLTHTMTHLGISRGHGPGPGYDAPGLHSPLSHPSLQSSLSNPNLQASLSSPQPQLQGSHSHPSLPASSLACHVLPTTSLGHPSLSAPALSSSSSSSSTSSPVLGAPSYPASTPGASPHHRRVPLSPLSLLAGPADARRSQQQLPKQFSPTMSPTLSSITQGVPLDTSKLSTDQRLPPYPYSSPSLVLPTQPHTPKSLQQPGLPSQSCSVQSSGGQPPGRQSHYGTPYPPGPSGHGQQSYHRPMSDFNLGNLEQFSMESPSASLVLDPPGFSEGPGFLGGEGPMGGPQDPHTFNHQNLTHCSRHGSGPNIILTGDSSPGFSKEIAAALAGVPGFEVSAAGLELGLGLEDELRMEPLGLEGLNMLSDPCALLPDPAVEESFRSDRLQ
modifications: human

Columns and labels:
Interleukin-8 promoter = test: IL-8 promoter luciferase reporter co-transfection assay with the CREAP gene family; format: cell-based, human; conditions: cotransfection, relative to empty pCMV-SPORT6 vector
Text: (§1) The entire amino acid sequence for CREAP1 was used in a BLASTP search of a public NCBI database. Initially two public domain cDNAs (XM—117201 and FLJ00364) were identified that have significant homology to the CREAP1 coding region. The nucleotide sequence of XM—117201 was used in a BLASTN search (Altschul S. F. et al., Nucleic Acids Res. 25:3389-3402 (1997)) of a proprietary cDNA library EST database and 4 clones were identified that represent XM—117201 public sequence. All 4 clones were functionally tested upon co-transfection with the CRE-Luc and IL-8p-Luc reporters initially found to be induced by CREAP using methods similar to those disclosed above. Briefly, trypsinized HeLa cells are resuspended in complete growth media at 6×10^4 cells/ml and distributed into white 96-well plates (Costar) in the volume of 100 μl per well. Cells are left overnight in a tissue culture incubator at 37° C. and 5% CO2. pGL3B-IL-8p-Luc reporter plasmid or CRE-Luc reporter (BD Biosciences) as well as tested cDNAs are resuspended in OptiMEM I low serum media (GIBCO BRL) at 25 ng/ml. The reporter plasmids and cDNAs are then distributed into 96-well clean PCR plates (ABGene) at 4 μl/well and 3 μl/well respectively. […]
The activity of firefly and Renilla luciferase is measured using the DualGlo Luciferase Assay System (Promega) following the protocol supplied by the manufacturer. Briefly, 115 μl of freshly reconstituted luciferase reagent is added to each well of the 96-well tissue culture plates with a Multidrop 384 and, after 15 minutes incubation, luminescence is read on a LUMINOSKAN Ascent Luminometer (Thermo Labsystems) with a 400 msec integration time. Subsequently, 115 μl of Stop-and-Glo reagent is added to each well of the 96-well tissue culture and, after 15 minutes incubation, luminescence is read on a LUMINOSKAN Ascent Luminometer with a 200 msec integration time. The activity of each tested cDNA is measured as a ratio of the corresponding firefly and Renilla luciferase activities. […]

GAL4-CREB fusion protein = test: GAL4-CREB activation assay in HLR cell line; format: cell-based; conditions: HLR cell line with integrated pFR-Luc reporter, normalized to pCMV-BD vector
Protocol: To determine if CREAP proteins can directly activate CREB1 protein, the expression constructs of CREAP1, CREAP2 and CREAP3 were transfected individually or with GAL4-CREB plasmid (Stratagene) into HLR cell line (Stratagene) carrying genomic DNA integrated copies of pFR-Luc reporter. Briefly, HLR cells were maintained per manufacturer's instructions. Selected plasmids and either empty vector (pCMV-BD) or GAL4-CREB plasmid were transfected at 75 ng/well using Fugene6 transfection reagent (Roche) as described above. As a positive control pFC-PKA an expression construct encoding catalytic subunit of protein kinase A (Stratagene) was also co-trasfected with GAL4-CREB. Fold of activation was compared to the reporter's activity measured in the cells transfected with empty vector.
The ability of full length CREAP1, CREAP2 and CREAP3 to induce the activity of GAL4-CREB fusion protein (Stratagene) was tested. The data presented are normalized to the value seen with pCMV-BD vector. […] Note the fold induction obtained with positive control is lower when compared to the data from Table 6 when all the plasmids including the reporter were transiently transfected.

[1] = system: minimal promoter linked to multiple copies of CRE; test: CRE-Luc reporter co-transfection assay with the CREAP gene family; format: cell-based; conditions: for CRE: level of expression of luciferase relative to empty vector: cotransfection, relative to empty pCMV-SPORT6 vector
Text: as §1, with “respectively. Mixture containing Fugene 6 reagent (Roche Applied Bioscience) at 1.5 μl per transfection and pRL-SV40 (Promega) plasmid 20 ng per transfection is added in the volume of 10 μl per well of the 96-well PCR plate containing prediluted cDNAs.” for “respectively.”
The activity of firefly and Renilla luciferase is measured using the DualGlo Luciferase Assay System (Promega) following the protocol supplied by the manufacturer. Briefly, 115 μl of freshly reconstituted luciferase reagent is added to each well of the 96-well tissue culture plates with a Multidrop 384 and, after 15 minutes incubation, luminescence is read on a LUMINOSKAN Ascent Luminometer (Thermo Labsystems) with a 400 msec integration time. Subsequently, 115 μl of Stop-and-Glo reagent is added to each well of the 96-well tissue culture and, after 15 minutes incubation, luminescence is read on a LUMINOSKAN Ascent Luminometer with a 200 msec integration time. The activity of each tested cDNA is measured as a ratio of the corresponding firefly and Renilla luciferase activities.
To investigate this, the ability of CREAP2 and CREAP3 to activate gene expression driven by the IL-8 promoter and a CRE-dependent promoter was tested in co-transfection assays as disclosed above. Briefly, the levels of expression of a luciferase reporter driven by either the IL-8 promoter or a minimal promoter linked to 4 copies of CRE were determined after cotransfection with either an empty pCMV-SPORT6 expression vector or with the same vector carrying a cDNA for CREAP1, CREAP2 or CREAP3. […]

[2] = system: GAL4 DNA binding sites (UAS-Luc, pFR-Luc reporter); test: GAL4 DNA binding domain fusion transactivation assay (pFR-Luc) in HEK 293 cells; format: cell-based; conditions: normalized to pCMV-BD vector
Text: To determine if CREAP proteins can act as a transcription activators, various regions of all 3 CREAP homologs (amino acids 300-650 of CREAP1, amino acids 296-694 of CREAP2 and amino acids 335-635 of CREAP3) were expressed as fusion proteins with the DNA binding domain of GAL4 and tested for the ability to activate expression of a reporter gene linked to GAL4 protein binding sequences (UAS-Luc (pFR-Luc reporter). Briefly, the indicated regions of CREAP1, CREAP2 and CREAP3 were amplified by PCR and subcloned in frame into pCMV-BD vector (Stratagene) encoding GAL4 DNA binding domain. Selected plasmids and empty vector (pCMV-SPORT6) were transfected into HEK 293 cells at 75 ng/well using Fugene6 transfection reagent (Roche) as described above. pFR-Luc reporter (Stratagene) encoding firefly luciferase gene driven by minimal promoter linked to 5 concatamerized GAL4 binding sites (UAS) was co-transfected at 100 ng/well. As a positive control, the reporter was also co-transfected with a plasmid encoding GAL4-CREB fusion protein (Stratagene) alone or in the presence of pFC-PKA an expression construct encoding catalytic subunit of protein kinase A (Stratagene) to activate the CREB kinase inducible activation domain. Fold induction was compared to the reporter's activity measured in the cells transfected with pCMV-BD an expression vector carrying GAL4 DNA binding domain only.
Expression constructs encoding full length CREAP1, CREAP2 and CREAP3 as well as a Gal4 DNA binding domain alone or fused with C-terminal portions of CREAP1, CREAP2 and CREAP3 were tested for the ability to induce expression of a luciferase gene controled by a minimal promoter linked to GAL4 DNA binding sites (pFRLuciferase). The data shown are normalized to the value seen with pCMV-BD vector co-transfected with pFR-Luc reporter.

human IL-8 promoter = test: pGL2-IL-8p-Luc reporter inducibility in HEK 293 cells; format: cell-based; conditions: expression construct co-transfected into HEK 293 cells, 48 hours post transfection
Protocol: A luciferase reporter controlled by a 1.5 kB IL-8 promoter containing fragment of human IL-8 promoter was tested for inducibility by known regulators of cytokine-mediated gene expression. pNF-κB-Luc (BD Biosciences) and pGL2-IL-8p-Luc reporters were co-transfected into HEK 293 cells with expression constructs encoding known activators of the NF-κB pathway, truncated MEKK (AA 360-672) (Stratagene) and a full length TRAF6 cDNA made according to conventional methods using a proprietary clone collection. Cells co-transfected with empty pCMV-Sport6 vector were either left untreated or treated with TNFα (50 ng/ml, for 16 hours). Luciferase activity was measured 48 hours post transfection. The pNF-κB-Luc reporter was used as a positive control.

Row | Molecule | IL-8: level of expression of luciferase relative to empty vector (Interleukin-8 promoter) | Fold Induction (GAL4-CREB fusion protein) | higher level of induction of gene expression compared to CREAP1 and CREAP2 ([1]; CRE and IL-8 promoter reporters) | CRE: level of expression of luciferase relative to empty vector [1] | Fold Induction [2] | increase of IL-8 promoter-reporter activity (human IL-8 promoter)
1 | B1 | 574.5714 | 2.458 | 2-4 fold | 71.4 | 1.58 | –
2 | B2 | – | – | – | – | – | 4.9 times
3 | B3 | 126.8571 | 2.435 | – | 38.6 | 2.47 | –
